B1: JUNB (parent)
chain: FVKALDDLHKMNHVTPPNVSLGAT
B2: KCNG1 (parent)
chain: AVNLSVSTLPSLREEEEQVRAHAP

Variants of: B1
Test: protein stability index of a GFP-peptide fusion (GPS, HEK-293T) (PSI 1-6); higher = more stable
Conditions: c terminus: a fixed tail appended
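Further: lentivirally expressed fusions sorted by FACS into six bins by GFP to DsRed ratio, PSI derived from sequencing read proportions per bin multiplied by bin number.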

Protein stability index, by site and new letter:
G22: T 1.82; C 2.47; R 1.2; M 1.72; V 2.27; F 2.48; K 1.46; L 2.5; N 2.28; Y 1.24; D 2.43; I 2.41; E 2.12; S 2.16; H 1.54; Q 2.66; A 1.85; P 2.15
N18: T 1.47; I 1.4; R 3.67; W 2.86; K 1.75; S 2.61; Q 2.49; M 2.5; L 1.93; C 1.69; V 1.63; E 1.62; G 1.73; Y 1.73; H 1.62; D 1.73; F 2.41
L21: H 1.74; C 1.38; K 2.44; V 1.65; I 1.9; T 1.78; Y 1.52; G 2.54; F 2.09; S 2.25; W 1.95; N 1.89; M 2.16; Q 2.36; A 2.17; D 2.51; R 2.15; P 1.96; E 2.9
A23: Q 1.46; K 2.06; F 1.41; I 1.77; S 2.05; P 2.46; R 2.39; G 1.27; E 2.17; C 2.16; D 2.11; Y 1.65; L 2.73; H 1.71; W 1.72; T 1.31; N 2.02; V 2; M 1.85
S20: Y 3.04; A 3.1; K 2.81; I 1.11; R 2.33; W 3.23; M 1.64; C 1.83; H 1.81; E 2.16; Q 1.7; D 1.72; P 2.12; F 1.39; V 1.77; T 2.09; G 2.46; N 1.96; L 1.56
V19: N 1.98; D 1.94; R 1.9; A 1.77; F 1.43; M 1.82; E 1.67; G 1.49; K 1.39; S 1.63; T 1.56; Q 1.79; H 2.41; Y 1.47; P 1.44; I 1.82; L 1.69; W 3.57; C 2.11
T24: S 2; Q 1.83; I 1.92; V 2.46; K 1.75; C 1.33; H 1.83; N 1.6; G 1.56; A 1.51; L 1.66; R 1.33; Y 1.62; W 1.54; F 2.66; E 2.52; D 1.86; M 1.81

Variants of: B2
Test: as above
Conditions: c terminus: a fixed tail appended

Protein stability index: each site, then its substitutions
N3: Q 4.77; L 2.41; G 5.03; T 4.75; F 3.02; Y 3.66; S 4.87; C 4.45; K 4.43; V 3.06; A 4.75; R 4.83; D 5.26; I 3.05; P 5.25; H 4.72; W 3.66; M 4.37; E 5.73
S5: T 4.59; R 3.29; V 4.1; F 3.79; A 5.48; K 4.47; D 5.24; E 5.33; G 4.93; M 4.49; P 5.36; L 3.82; I 3.86; C 4.65; W 3.31; Q 4.2; N 4.03; H 4.71; Y 4.59
S11: P 4.93; E 5.14; D 5.02; H 5.07; N 4.95; L 4.75; G 3.95; M 4.54; R 4.88; Q 5.01; A 5.43; I 4.79; K 5.13; F 4.45; C 4.3
L4: P 5.32; C 4.88; Q 5.44; T 4.9; V 5.01; M 5.05; R 5.03; Y 4.98; D 5.58; E 5.73; A 4.86; G 5.24; S 5.05; I 4.8; K 5.24; W 4.45; H 5.72; N 5.55; F 4.51
V6: L 4.69; R 5.02; H 5.3; I 5.08; Y 4.69; E 5.58; F 4.59; C 4.75; W 4.53; T 5.08; N 5.18; P 5.45; G 4.8; K 5.01; D 5.34; M 4.98; S 5.18; Q 5.24; A 5.14
S7: A 4.75; D 4.8; K 4.94; W 3.68; T 4.95; R 4.93; C 4.41; P 5.09; G 5.18; I 3.67; V 4.71; E 4.47; H 5.03; M 4.53; L 3.62; Y 4.19; F 4.11; Q 4.91; N 5.02
P10: M 4.28; Q 5.05; C 4.35; V 4.61; H 4.63; S 4.62; I 3.67; R 4.29; G 4.71; D 5.06; T 4.49; E 5.04; F 3.5; N 4.7; A 4.59; W 4.05; K 4.74; L 4.06; Y 4.03
T8: W 3.11; S 4.82; G 5.15; R 4.94; N 5.14; K 4.61; M 4.53; C 4.67; Y 4.19; D 5.36; L 4.55; V 4.45; P 5.14; F 3.42; E 4.95; H 4.83; Q 5.07; A 5.28; I 4.12
L9: V 4.73; I 4.14; T 5.08; S 5.09; E 4.67; Q 4.88; F 5.08; W 3.81; K 5.19; A 5.36; M 4.63; P 5.26; C 4.66; H 4.81; D 5.49; N 5.42; R 5.28; G 4.83; Y 4.47
V2: G 5.46; D 5.64; Y 4.93; F 4.83; W 4.1; K 5.63; A 5.6; H 5.54; C 4.98; N 5.59; R 5.04; E 5.39; T 5.23; M 4.79; P 5.57; Q 5.33; I 4.89; S 5.41; L 5.04
A1: F 2.57; I 4.48; G 4.96; M 4.61; P 5.12; R 5.31; S 4.82; Q 4.28; H 5.12; C 5; D 5.52; E 4.75; L 4.14; Y 2.47; N 5.02; V 4.39; W 3.81; K 5.28; T 5.46
